Key:
recombinant soluble CD4 = recombinant soluble CD4 (UniProt P01730); test: SPR
human mAb 4E10 (human) = test: SPR
Chain of human mAb 4E10 (human) (light, as listed by the source, chain 2 of 2, other chains not shown): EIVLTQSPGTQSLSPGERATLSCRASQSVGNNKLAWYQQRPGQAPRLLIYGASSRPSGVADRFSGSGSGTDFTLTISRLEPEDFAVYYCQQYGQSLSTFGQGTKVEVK

Substance “HIV-1 JRFL gp140CF Env, WT glycosylated (domain or fragment)” has a Kd (recombinant soluble CD4) of 5.7 nM.

For “CON-S gp140CFI Env, natively deglycosylated with PNGase F 500 U per µg”, the Kd (recombinant soluble CD4) was 9.4 nM and the fold enhancement of Kd against WT glycosylated CON-S gp140 (human mAb 4E10 (human)) was 7 fold.

With “group M consensus gp140 Env, CON-S gp140CFI, WT glycosylated” the Kd (recombinant soluble CD4) was 7.4 nM.

“HIV-1 JRFL gp140CF Env, natively deglycosylated with PNGase F 500 U per µg (domain or fragment)” showed a Kd (recombinant soluble CD4) of 35.3 nM.
